# B1: Recombinant human PDIA3/ERp57 (enzyme, UniProt P30101 25-505, looked up)
# chain: SDVLELTDDNFESRISDTGSAGLMLVEFFAPWCGHCKRLAPEYEAAATRLKGIVPLAKVDCTANTNTCNKYGVSGYPTLKIFRDGEEAGAYDGPRTADGIVSHLKKQAGPASVPLRTEEEFKKFISDKDASIVGFFDDSFSEAHSEFLKAASNLRDNYRFAHTNVESLVNEYDDNGEGIILFRPSHLTNKFEDKTVAYTEQKMTSGKIKKFIQENIFGICPHMTEDNKDLIQGKDLLIAYYDVDYEKNAKGSNYWRNRVMMVAKKFLDAGHKLNFAVASRKTFSHELSDFGLESTAGEIPVVAIRTAKGEKFVMQEEFSRDGKALERFLQDYFDGNLKRYLKSEPIPESNDGPVKVVVAENFDEIVNNENKDVLIEFYAPWCGHCKNLEPKYKELGEKLSKDPNIVIAKMDATANDVPSPYEVRGFPTIYFSPANKKLNPKKYEGGRELSDFISYLQREATNPPVIQEEKPKKKKKAQEDL
# notes: protein disulfide isomerase A3 (PDIA3/ERp57), human, recombinant; Limits, host and tags are told only by the supplier's data sheet; source: bought: Abcam (Cat. No. ab92937)
# B2: Recombinant human CCN2 (natural protein, UniProt P29279 27-349, looked up)
# chain: QNCSGPCRCPDEPAPRCPAGVSLVLDGCGCCRVCAKQLGELCTERDPCDPHKGLFCHFGSPANRKIGVCTAKDGAPCIFGGTVYRSGESFQSSCKYQCTCLDGAVGCMPLCSMDVRLPSPDCPFPRRVKLPGKCCEEWVCDEPKDQTVVGPALAAYRLEDTFGPDPTMIRANCLVQTTEWSACSKTCGMGISTRVTNDNASCRLEKQSRLCMVRPCEADLEENIKKGKKCIRTPKISKPIKFELSGCTSMKTYRAKFCGVCTDGRCCTPHRTTTLPVEFKCPDGEVMKKNMMFIKTCACHYNCPGDNDIFESLYYRKMYGDMA
# notes: cell communication network 2 (CCN2/CTGF), human, recombinant; Limits, host and tags are told only by the supplier's data sheet; also called cell communication network 2; CTGF; source: bought: R&D (Cat. No. 9190-CC-050)
# Target: T1, Native human platelet thrombospondin-1 (human, UniProt P07996 19-1170)
# T1 construct: thrombospondin-1 (TSP1), human, native protein from platelets; also called TSP1; native human TSP1; source: bought: Cell Sciences Inc. (Cat. No. CSL19832A), native from human platelets
# T1 sequence (P07996 19-1170): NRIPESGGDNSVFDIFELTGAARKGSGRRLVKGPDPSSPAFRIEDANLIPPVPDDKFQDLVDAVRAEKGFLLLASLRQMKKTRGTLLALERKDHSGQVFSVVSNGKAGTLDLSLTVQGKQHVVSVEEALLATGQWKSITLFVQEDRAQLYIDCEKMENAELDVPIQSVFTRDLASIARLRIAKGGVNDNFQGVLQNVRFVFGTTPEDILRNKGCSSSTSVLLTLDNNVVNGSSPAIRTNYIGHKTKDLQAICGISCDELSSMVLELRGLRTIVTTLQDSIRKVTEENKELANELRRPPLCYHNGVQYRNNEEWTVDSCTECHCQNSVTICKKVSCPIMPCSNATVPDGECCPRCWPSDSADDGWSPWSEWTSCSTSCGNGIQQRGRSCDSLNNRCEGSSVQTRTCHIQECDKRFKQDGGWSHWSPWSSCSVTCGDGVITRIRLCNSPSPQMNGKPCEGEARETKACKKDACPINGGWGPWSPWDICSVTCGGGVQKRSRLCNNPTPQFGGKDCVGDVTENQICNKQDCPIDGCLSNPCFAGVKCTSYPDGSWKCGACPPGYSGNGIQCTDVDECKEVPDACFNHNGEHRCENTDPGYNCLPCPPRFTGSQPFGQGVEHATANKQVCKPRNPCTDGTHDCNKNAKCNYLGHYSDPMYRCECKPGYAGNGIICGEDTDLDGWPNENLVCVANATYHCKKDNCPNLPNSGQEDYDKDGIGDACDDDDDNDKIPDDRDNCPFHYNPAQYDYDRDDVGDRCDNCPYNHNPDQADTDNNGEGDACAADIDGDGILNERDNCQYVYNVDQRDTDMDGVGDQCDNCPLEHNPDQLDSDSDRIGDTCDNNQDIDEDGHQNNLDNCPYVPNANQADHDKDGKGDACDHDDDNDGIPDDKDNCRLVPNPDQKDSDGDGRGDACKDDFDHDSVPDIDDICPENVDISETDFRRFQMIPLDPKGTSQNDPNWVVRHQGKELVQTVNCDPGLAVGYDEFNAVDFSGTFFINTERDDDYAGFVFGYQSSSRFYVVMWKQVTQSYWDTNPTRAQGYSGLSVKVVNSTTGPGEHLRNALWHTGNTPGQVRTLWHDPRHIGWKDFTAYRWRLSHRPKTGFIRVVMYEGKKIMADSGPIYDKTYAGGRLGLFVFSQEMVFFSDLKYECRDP
# Test: ELISA; solid-phase binding: PDIA3/ERp57 or CCN2 coated at various concentrations on Immulon 2Hb wells in TBS with 2 mM CaCl2 and 15 µM ZnSO4, 16 h at 4°C; blocked with 5% BSA; 50 µg/mL (388 µM as printed) native human TSP1 added for 1 h at room temperature; detected with anti-TSP1 (C9) and anti-mouse-IgG-HRP, absorbance at 450 nm
# Details: both partners purified
row,Binder,binding result
1,B1,binds
2,B2,binds
